Literature values, collected in article PMC8348223.

Assays:
[1] = molecular target: Bax (UniProt Q07812)
[2] = molecular target: Bcl-XL (UniProt Q07817)
Sequence of Bcl-XL (Q07817 whole entry): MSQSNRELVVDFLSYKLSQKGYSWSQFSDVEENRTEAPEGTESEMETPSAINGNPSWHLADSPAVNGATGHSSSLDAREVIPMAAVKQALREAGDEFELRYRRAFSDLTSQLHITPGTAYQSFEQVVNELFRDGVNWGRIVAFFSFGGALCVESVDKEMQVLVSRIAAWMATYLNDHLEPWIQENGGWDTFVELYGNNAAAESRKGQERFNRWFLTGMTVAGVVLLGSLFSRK

Sequence of tBid (P55957 61-195): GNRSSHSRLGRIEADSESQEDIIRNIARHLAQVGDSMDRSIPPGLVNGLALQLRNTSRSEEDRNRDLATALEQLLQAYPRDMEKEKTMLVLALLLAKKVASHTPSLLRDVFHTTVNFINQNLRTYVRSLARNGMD
Sequence of Bax (Q07812 whole entry): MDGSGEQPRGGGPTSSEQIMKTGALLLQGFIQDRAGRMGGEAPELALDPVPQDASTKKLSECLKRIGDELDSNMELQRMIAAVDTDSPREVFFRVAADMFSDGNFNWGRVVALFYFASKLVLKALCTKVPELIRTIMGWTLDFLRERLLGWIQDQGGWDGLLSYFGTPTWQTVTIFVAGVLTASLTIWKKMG

tBid (from UniProt P55957)
Kd [1]: 20 nM
Kd [2]: 1 nM
